Reference: patent publication US20190184028A1 (Janssen / Centocor, published 2019)

molecular target: T1, epidermal growth factor receptor (EGFR) (human, UniProt P00533 25-1210); test: flow cytometry on H292 cells
T1 construct: whole, on cells; The cell assays use human tumour lines; also called hEGFR
Description: To determine the activity of the recently created FN3 domain molecule-SPION, cell targeting assays were set-up in vitro. H292 cells were dissociated from a T-150 cell culture flask using Hank's Enzyme free dissociation buffer (Invitrogen—13150-016). The cells and dissociation buffer were incubated for 15 minutes in a cell incubator. The flask was gently tapped to dissociate any residually bound cells and the buffer and cells were transferred to a 15 mL conical tube. The cells were spun at 1,000 rcf for 2 minutes. The supernatant was gently removed with careful consideration paid to not disturbing the pelleted cells. The cell pellet left over was reconstituted in 1.5 mL of phenol-red free RPMI 1640 media with 10% FBS. It was determined that the suspension contained approximately […]. 100 μL of this suspension was added to each well of a 96-well plate. FN3 domain molecule-SPION sample concentrations are listed above. From these known concentrations, FN3 domain molecule-SPION was added to each well so that the final concentration of FN3 domain molecule-SPION with the cells was 100 μg/mL Fe. Samples were plated in triplicate and incubated for 30 minutes and then purified via 3× centrifugation at 1,000×rcf and resuspension in dPBS pH 7.2. Samples were suspended in a final volume of 300 μL and moved to a clear, flat bottom 96-well plate for analysis on the Guava HTS flow cytometer. A total of 8,000 cells were counted for each sample. Following flow, population samples were analyzed using FlowJo. Each sample was gated so that only live cells were assessed for fluorescence. Histograms were obtained wherein the black peak (the peak to the left side of the graph) is the autofluorescence obtained from unlabeled H292 cells. The blue peak (the peak to the right side of the graph) corresponds to the sample title above the histogram. 83v10, 83v12 and 83v15 are positively shifted compared to the tencon25 control or blank cells (FIGS. 1A-1D). […] All samples were normalized by subtracting the blank cell autofluorescence from the mean fluorescent intensities of each sample. […]

| binding result | Binder |
| --- | --- |
| binds | 83v10-SPION (designed binder, Cys 15 coupled to a superparamagnetic iron oxide nanoparticle (SPION), Cysteine variant of the EGFR-targeting FN3 domain P54AR4-83v2, many copies on a nanoparticle (50:1 molar ratio in the reaction); also called 83v10 = E15C) MLPAPKNLVVSEVTCDSARLSWDDPWAFYESFLIQYQESEKVGEAIVLTVPGSERSYDLTGLKPGTEYTVSIYGVHNVYKDTNMRGLPLSAIFTTGGHHHHHH |
| binds | 83v12-SPION (designed binder, Cys 19 coupled to a superparamagnetic iron oxide nanoparticle (SPION), Cysteine variant of P54AR4-83v2 on a nanoparticle; also called 83v12 = R19C) MLPAPKNLVVSEVTEDSACLSWDDPWAFYESFLIQYQESEKVGEAIVLTVPGSERSYDLTGLKPGTEYTVSIYGVHNVYKDTNMRGLPLSAIFTTGGHHHHHH |
| binds | 83v15-SPION (designed binder, C-terminal Cys coupled to a superparamagnetic iron oxide nanoparticle (SPION), Cysteine variant of P54AR4-83v2 on a nanoparticle; also called 83v15 = C-terminal) MLPAPKNLVVSEVTEDSARLSWDDPWAFYESFLIQYQESEKVGEAIVLTVPGSERSYDLTGLKPGTEYTVSIYGVHNVYKDTNMRGLPLSAIFTTGGHHHHHHC |
